Data on 1 molecule can be found in patent JP2023550785A (dated 2023).

For test [1], the target named is T1, MERS-CoV (London1/2012) prefusion-stabilized spike (S) protein / S ectodomain trimer (MERS-CoV (London1/2012), UniProt K9N5Q8 18-1296).
T1 sequence: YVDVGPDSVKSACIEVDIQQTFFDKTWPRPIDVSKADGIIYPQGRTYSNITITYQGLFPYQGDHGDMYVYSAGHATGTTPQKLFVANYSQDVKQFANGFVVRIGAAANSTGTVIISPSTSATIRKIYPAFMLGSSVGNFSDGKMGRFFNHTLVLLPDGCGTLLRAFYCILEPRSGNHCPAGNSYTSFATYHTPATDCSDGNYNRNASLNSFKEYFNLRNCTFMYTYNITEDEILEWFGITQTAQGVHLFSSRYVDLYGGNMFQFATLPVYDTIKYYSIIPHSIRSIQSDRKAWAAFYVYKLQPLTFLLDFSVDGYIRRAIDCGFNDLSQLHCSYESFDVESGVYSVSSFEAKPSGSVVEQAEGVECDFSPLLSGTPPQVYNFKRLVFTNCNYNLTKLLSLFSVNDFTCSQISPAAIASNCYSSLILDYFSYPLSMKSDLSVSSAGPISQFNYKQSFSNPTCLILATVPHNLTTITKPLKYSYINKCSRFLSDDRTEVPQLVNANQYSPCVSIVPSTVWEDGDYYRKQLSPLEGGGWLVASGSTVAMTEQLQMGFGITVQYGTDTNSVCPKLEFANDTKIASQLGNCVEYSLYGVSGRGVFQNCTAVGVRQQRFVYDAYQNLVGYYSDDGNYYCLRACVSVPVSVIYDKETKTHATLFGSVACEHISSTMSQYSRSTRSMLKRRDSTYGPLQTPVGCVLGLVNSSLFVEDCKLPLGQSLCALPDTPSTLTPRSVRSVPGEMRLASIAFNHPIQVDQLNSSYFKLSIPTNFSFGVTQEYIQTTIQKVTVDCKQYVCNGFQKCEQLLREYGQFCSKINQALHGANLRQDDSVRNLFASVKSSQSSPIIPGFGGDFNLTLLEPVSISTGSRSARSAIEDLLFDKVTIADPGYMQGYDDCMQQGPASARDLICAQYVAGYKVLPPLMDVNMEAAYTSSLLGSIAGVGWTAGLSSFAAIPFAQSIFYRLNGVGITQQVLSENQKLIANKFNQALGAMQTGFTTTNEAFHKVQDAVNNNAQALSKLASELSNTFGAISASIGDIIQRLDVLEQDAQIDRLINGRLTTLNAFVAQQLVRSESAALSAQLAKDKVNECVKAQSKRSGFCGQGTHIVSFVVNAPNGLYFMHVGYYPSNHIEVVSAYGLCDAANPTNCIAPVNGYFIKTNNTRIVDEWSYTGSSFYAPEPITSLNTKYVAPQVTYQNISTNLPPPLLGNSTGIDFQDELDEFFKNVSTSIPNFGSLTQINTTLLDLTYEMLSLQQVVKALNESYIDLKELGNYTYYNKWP

Test [2] concerns the target T2, HCoV-HKU1 prefusion-stabilized spike (S) protein / S ectodomain trimer (human coronavirus HKU1, UniProt Q5MQD0 13-1300).
T2 sequence: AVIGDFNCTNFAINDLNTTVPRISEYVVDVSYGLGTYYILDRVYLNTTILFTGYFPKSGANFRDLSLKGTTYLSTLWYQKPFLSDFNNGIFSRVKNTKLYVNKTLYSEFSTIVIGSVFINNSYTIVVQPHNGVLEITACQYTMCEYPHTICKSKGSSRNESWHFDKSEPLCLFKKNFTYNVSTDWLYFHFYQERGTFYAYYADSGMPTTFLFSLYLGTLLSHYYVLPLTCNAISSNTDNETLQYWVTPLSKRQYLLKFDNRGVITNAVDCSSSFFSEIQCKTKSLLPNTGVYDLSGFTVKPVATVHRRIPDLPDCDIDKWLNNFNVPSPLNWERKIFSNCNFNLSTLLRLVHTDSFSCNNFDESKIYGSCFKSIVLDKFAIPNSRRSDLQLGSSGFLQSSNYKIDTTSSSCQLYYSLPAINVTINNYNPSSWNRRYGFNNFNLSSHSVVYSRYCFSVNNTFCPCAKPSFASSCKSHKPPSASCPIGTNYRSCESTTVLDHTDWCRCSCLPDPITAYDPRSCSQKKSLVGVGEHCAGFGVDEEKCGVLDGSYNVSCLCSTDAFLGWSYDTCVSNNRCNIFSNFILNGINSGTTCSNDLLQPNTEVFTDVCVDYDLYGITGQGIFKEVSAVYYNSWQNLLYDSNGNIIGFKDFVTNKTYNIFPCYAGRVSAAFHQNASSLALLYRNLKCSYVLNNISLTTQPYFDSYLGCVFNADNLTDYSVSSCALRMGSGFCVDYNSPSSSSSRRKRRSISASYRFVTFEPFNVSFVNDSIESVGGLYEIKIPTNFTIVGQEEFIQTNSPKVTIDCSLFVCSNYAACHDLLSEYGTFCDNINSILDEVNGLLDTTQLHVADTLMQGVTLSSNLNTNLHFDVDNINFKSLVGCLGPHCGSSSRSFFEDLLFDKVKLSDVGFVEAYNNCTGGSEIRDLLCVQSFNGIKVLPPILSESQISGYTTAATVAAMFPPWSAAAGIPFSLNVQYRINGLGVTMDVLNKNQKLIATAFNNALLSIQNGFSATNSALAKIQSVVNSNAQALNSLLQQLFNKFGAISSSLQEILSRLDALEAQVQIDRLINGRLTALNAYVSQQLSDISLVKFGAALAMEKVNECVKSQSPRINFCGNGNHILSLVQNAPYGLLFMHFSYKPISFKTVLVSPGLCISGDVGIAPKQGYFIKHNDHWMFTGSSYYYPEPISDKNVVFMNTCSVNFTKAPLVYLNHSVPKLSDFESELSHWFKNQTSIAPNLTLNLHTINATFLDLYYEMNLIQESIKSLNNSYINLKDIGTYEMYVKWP

Test [3] has as its target SARS-CoV (Urbani strain) prefusion-stabilized spike (S) protein / S ectodomain trimer (SARS-CoV (Urbani strain), UniProt P59594 14-1195). The test can be described thus: SPR (Biacore T200), S ectodomain trimer captured, Fab as analyte.

B1: S2P6 Fab fragment (Fab, V domains shown)
VH: EVQLVQSGAEVKKPGASVKVSCKASGYTFTSQYMHWVRQAPGQGLEWIGIINPSGVHTSYAQKFQGRVTLTRDTSTSTLYMELSSLRSEDTAVYYCARGSPKGAFDYWGQGTLVTVSS
VL: not shown
Broadly, the Kd is the free concentration of one partner at which half of the binding sites on the other are occupied at equilibrium, for simple one-to-one binding. A low value points to higher affinity. Consider B1, for which the Kd was 12 nM in test [1], ~120 nM in test [2] and 7 nM in test [3].
